The results in this text go back to paper PMC3121797.

“And” between values parts separate entries of the source, which are not always exact repeats. Identical values can stand only once.

The experiment addresses unliganded V1/V2 loop-deleted envelope glycoproteins. As to the kind of experiment: ELISA. For orientation: ELISA stands for enzyme-linked immunosorbent assay.

Consider “C34-Ig fusion protein (from UniProt P04578 628-661) (Fc fusion)”, for which the C34-Ig binding without sCD4 as percent of that with sCD4 was 20% and 45%.
